The term Kd denotes the equilibrium constant for the complex coming apart.

The text below walks through data of publication PMC8892312 (Proceedings of the National Academy of Sciences of the …, 2022).

The labels stand for the following.
B1: Gp46 from bacteriophage SPO1 (natural protein)
chain: MMTEDQKFKYLTKIEELEAGCFSDWTKEDITGDLKYLKKGIIEESIELIRAVNGLTYSEELHDFTQEIIEELDISPL
B5: HBsu (histone-like protein HU of B. subtilis), recombinant (natural protein)
chain: MNKTELINAVAEASELSKKDATKAVDSVFDTILDALKNGDKIQLIGFGNFEVRERSARKGRNPQTGEEIEIPASKVPAFKPGKALKDAVAGK

The target in series [1] is HU of Acinetobacter baumannii (Acinetobacter baumannii). The experiment in a line: ITC. On the technique in general: In ITC the heat of successive injections is recorded.
Series [2] has as its target B5. The experiment in a line: ITC.
The next series concerns the target T1, HBsu^I71A (Bacillus subtilis, UniProt P08821 1-92, I71A).
T1 sequence: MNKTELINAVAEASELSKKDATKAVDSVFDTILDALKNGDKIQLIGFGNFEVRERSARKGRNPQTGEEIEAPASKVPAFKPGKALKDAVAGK
The experiment in a line: ITC.

For another series, the target named is T2, HBsu^R53N/R55N/R58N (Bacillus subtilis, UniProt P08821 1-92, R53N | R55N | R58N).
T2 sequence: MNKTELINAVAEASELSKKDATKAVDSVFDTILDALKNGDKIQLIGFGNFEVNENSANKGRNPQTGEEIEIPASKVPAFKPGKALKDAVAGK
The experiment in a line: ITC.

For series [3], the target named is B5. Briefly: SPR. For orientation: Surface plasmon resonance follows binding to a sensor surface in real time, without labels.
In series [4] the target is B5. The experiment in a line: ITC. The source holds these as a separate data set.
Series [5] deals with B1. Briefly: ITC.
For another series, the target named is T3, HBsu (HU of B. subtilis) (Bacillus subtilis, UniProt P08821 1-92).
T3 sequence: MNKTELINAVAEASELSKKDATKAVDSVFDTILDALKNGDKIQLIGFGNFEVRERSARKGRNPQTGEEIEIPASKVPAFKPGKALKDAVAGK
The experiment in a line: ITC.

The series “SEC-MALS” concerns the molecule itself. The experiment in a line: SEC-MALS. On the technique in general: In gel filtration, larger molecules generally elute earlier.

Take B1: the dissociation constant Kd in series [1] amounted to 300 nM; in [2], 277 ± 50 nM; with HBsu^I71A, 6410 ± 3540 nM; in series [3] it was 5870 ± 110 nM. In the series with HBsu^R53N/R55N/R58N, the binding result was “binds”.

B2: Gp46^D63N (natural protein)
chain: MMTEDQKFKYLTKIEELEAGCFSDWTKEDITGDLKYLKKGIIEESIELIRAVNGLTYSEELHNFTQEIIEELDISPL
As to B2, the binding result in series [4] is “binds”.

B3: HU of Plasmodium falciparum (natural protein)
chain: RRAFINVHKNNIINNKLSVNNPYNKNALYQSSSKIPMSQAITKKQIIEEVSMETKENKKTVEKIMNGIFDNIYKHLENNEKIYIHKFGMFYNIFRKKRCIKNLRTKEDIEIESSHMPHFKFSKVFKELIKQNVKVKKGKGVSTNDHDLDEDDMNMDNINESFKENVNEKLIY
Regarding B3, the equilibrium dissociation constant (Kd) in series [5] was around 300 nM.

B4: dsDNA (DNA1/DNA2) (dsDNA)
DNA 1: TGCTTATCAATTTGTTGCACC
DNA 2: GGTGCAACAAATTGATAAGCA
Take B4: in the series with HBsu (HU of B. subtilis), the affinity, expressed as Kd, was 359 ± 38 nM.

Turning to B5, the binding result in “SEC-MALS” is reported as “binds”.
